This note sets out measurements from paper PMC3496724.

In assay [1] the target is HIV-1 Tat protein (wild type, biologically active) (HIV-1 (human T lymphotropic virus type IIIB-BH-10, subtype B)) (UniProt P04610). Briefly: SPR; BIACORE 3000; Tat immobilised by amine coupling on a CM3 chip; Env (5–1,000 nM) flowed in PBS pH 7.4 with 0.2% Tween 20, 300 mM NaCl, 5 mg/mL dextran; blank reference surface subtracted; single-site model. (In general: Surface plasmon resonance follows binding to a sensor surface in real time, without labels.)

For assay [2] the target is unchanged. Briefly: ITC; VP-ITC; Tat (1.25 to 4.4 µM) in the cell, trimeric Env (12.5 to 47.0 µM in protein subunit) in the syringe; PBS pH 7.4. In general terms: ITC needs no label: the signal is the heat of the interaction.

A word on the Kd: it is the free concentration of one partner at which half of the binding sites on the other are occupied at equilibrium, for simple one-to-one binding. By koff is commonly meant a measure of how fast the partners let go of each other. High values mean a short-lived complex, low ones a long-lived complex. A word on the kon: it is the second-order rate constant of association. A low value points to slow association.

In assay [1], “monomeric ΔV2 Env (clade B, HIV-1 SF162) (natural protein)” gave a Kd of 91 nM, a T1/2 (complex dissociation half life) of 23 min, a koff of 0.00049 s⁻¹ and a kon of 5900 M⁻¹ s⁻¹.

In assay [1], “trimeric ΔV2 Env (clade B, HIV-1 SF162) (natural protein)” registered a Kd of 22 nM, a T1/2 (complex dissociation half life) of 230 min, a koff of 5e-05 s⁻¹ and a kon of 2600 M⁻¹ s⁻¹.

In assay [1], “trimeric wt Env (clade B, HIV-1 SF162) (natural protein)” returned a Kd of 38 nM, a T1/2 (complex dissociation half life) of 23 min, a koff of 0.00049 s⁻¹ and a kon of 14000 M⁻¹ s⁻¹. Besides, in assay [2], the Kd worked out at 111 nM and the stoichiometry N (Tat per gp120 subunit) was found to be 1.
